How the values were obtained:
Assay in all cases: ITC; Tris buffer
[1] = biological target: T1, Staphylococcus aureus Cas9, full length, His-tagged (Staphylococcus aureus, UniProt J7RUA5 1-1053)
T1 chain: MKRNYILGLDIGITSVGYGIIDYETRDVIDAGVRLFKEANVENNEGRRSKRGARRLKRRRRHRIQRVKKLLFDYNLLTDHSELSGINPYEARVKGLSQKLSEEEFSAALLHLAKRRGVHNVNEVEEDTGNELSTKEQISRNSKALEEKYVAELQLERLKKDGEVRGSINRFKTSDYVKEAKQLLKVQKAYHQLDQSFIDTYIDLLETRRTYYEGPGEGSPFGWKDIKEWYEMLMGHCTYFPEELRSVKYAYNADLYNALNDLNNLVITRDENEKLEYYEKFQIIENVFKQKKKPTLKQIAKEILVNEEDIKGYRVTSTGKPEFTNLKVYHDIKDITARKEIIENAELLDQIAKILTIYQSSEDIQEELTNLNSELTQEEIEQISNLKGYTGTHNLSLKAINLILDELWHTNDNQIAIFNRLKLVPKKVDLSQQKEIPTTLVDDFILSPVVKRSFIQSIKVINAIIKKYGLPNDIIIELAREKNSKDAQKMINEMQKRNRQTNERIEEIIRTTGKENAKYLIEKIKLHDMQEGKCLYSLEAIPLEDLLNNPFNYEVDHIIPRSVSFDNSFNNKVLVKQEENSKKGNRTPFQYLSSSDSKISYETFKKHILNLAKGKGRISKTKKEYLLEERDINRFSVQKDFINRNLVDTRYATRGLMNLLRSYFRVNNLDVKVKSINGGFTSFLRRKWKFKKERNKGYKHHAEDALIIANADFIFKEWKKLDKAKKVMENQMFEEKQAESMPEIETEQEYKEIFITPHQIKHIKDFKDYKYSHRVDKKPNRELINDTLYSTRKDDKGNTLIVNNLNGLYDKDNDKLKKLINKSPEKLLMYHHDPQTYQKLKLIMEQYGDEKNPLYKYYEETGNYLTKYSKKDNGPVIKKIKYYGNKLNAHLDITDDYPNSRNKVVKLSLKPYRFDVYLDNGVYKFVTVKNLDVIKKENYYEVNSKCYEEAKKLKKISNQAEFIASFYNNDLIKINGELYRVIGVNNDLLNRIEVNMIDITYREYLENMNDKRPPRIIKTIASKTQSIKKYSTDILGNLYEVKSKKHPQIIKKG

[2] = biological target: T2, SauCas9 PI (PAM-interacting) domain, His-tagged (Staphylococcus aureus)
T2 chain: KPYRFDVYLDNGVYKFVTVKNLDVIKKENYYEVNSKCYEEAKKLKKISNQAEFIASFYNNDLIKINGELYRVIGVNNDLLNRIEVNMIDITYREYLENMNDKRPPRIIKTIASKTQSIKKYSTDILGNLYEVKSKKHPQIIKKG

[3] = biological target: T3, SauCas9 WED-PI domain construct, His-tagged (Staphylococcus aureus)
T3 chain: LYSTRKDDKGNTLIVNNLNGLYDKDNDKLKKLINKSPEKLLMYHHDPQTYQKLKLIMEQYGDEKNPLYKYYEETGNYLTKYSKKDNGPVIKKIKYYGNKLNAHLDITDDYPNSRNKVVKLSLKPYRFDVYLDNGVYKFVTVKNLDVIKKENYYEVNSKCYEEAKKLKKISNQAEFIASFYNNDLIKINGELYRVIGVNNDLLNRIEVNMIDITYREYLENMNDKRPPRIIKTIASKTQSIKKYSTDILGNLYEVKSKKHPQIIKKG

[4] = biological target: T4, SauCas9 WED (wedge-like) domain, His-tagged (Staphylococcus aureus)
T4 chain: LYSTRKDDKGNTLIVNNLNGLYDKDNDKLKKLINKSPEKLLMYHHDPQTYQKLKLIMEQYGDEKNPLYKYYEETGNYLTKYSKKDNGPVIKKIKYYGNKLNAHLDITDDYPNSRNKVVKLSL

B1: Staphylococcus haemolyticus AcrIIA13b, wild type, with C-terminal 6xHis tag (natural protein)
chain: MNELNNKMIEDVVLGEVELIEDLGQYFIDIEGDYEYNVEFATLSEVDYKVCALYEVATSKTYEVPYHDKLEKEDMKLFYDKWLEKDQQEETYIESVFFVNREDAESYIKDVLKGKESLTEVAAEIGYFELEHHHHHH
With B1 the Kd [1] was 6.15 µM, the Kd [2] was 3.83 µM and the Kd [3] was 1610 nM. The Kd [4] was 8.17 µM.
